For this series, the target named is ZF9-MQ1 (synthetic). The series can be described thus: cell_activity; MYC mRNA down-regulation in A549 and HCC95, 72 h. As to conditions: tags: NLS, MQ1 DNA methyltransferase, HA.
ZF9-MQ1 (synthetic), sequence (chain, as listed by the source): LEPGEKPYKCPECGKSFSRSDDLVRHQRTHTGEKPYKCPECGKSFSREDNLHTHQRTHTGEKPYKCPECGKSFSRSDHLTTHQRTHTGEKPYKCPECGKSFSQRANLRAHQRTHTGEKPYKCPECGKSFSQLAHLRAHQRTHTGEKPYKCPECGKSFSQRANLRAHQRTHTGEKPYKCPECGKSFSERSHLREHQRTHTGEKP

B1: ZF9 target site in MYC promoter (dsDNA)
DNA 1: AGCAAAAGAAAATGGTAGGCG
DNA 2: CGCCTACCATTTTCTTTTGCT
Molecule B1 returned an EC50 of 0.08 ug/ml LNP/mRNA.

Source of the values: patent US20240132559, “COMPOSITIONS AND METHODS FOR MODULATING MYC EXPRESSION” (FLAGSHIP PIONEERING INNOVATIONS V, INC., published 2024).
